According to article PMC12700558, “Aggregation shifts amyloid-β peptides from synaptogenic to synaptotoxic” (The Journal of Clinical Investigation, 2025):
“Also recorded” adds a separate entry of the source.

Test: Native PAGE and immunoblotting of the aggregation state of Aβ peptides
Format: physicochemical
Conditions: stock solutions incubated at 37°C for 60 or 90 minutes, native PAGE, immunoblot 4G8 / Abcam 126892
Protocol: To assess the aggregation state of Aβ peptides in stock solutions, we performed native polyacrylamide gel electrophoresis (PAGE) followed by immunoblotting. Stock solutions of Aβ peptides were incubated at 37°C for 1.5 and/or 1 hours to promote aggregate formation. After incubation, samples were diluted 1:2 with native PAGE sample buffer to maintain nondenaturing conditions. The samples were loaded onto 4%–15% gradient polyacrylamide Criterion gels (Bio-Rad), which allow for the separation of proteins across a wide range of molecular weights under native conditions. Electrophoresis was conducted using Tris-Glycine buffer at 4°C for 3 hours to preserve the native structure of the peptide aggregates during separation. A constant voltage appropriate for native PAGE was applied throughout the run ([49]). Following electrophoresis, proteins were transferred onto Nitrocellulose (0.45 μm) membranes using a semidry transfer apparatus optimized for proteins of mixed molecular weights. The transfer was performed according to the manufacturer’s instructions, ensuring efficient transfer of both low and high molecular weight species. Membranes were blocked with 5% BSA (GeminiBio) in Tris-buffered saline with 0.1% Tween-20 (TBST) at room temperature for 1 hour to prevent nonspecific antibody binding. […] Blots were imaged using the Odyssey Infrared Imager CLX and analyzed using Image Study 5.2.5. […]

In the case of “-.DAEFRHDSGYEVHHQKLVFFAGDVGSNKGAIIGLMVGGVVI.A [Aβ42^arctic]”, the “Aggregation state in native gel analyses (in words)” value is reported as “completely aggregated even at lower concentrations; also recorded: quantitatively aggregated”.
